Experimental data: patent US5550213A, “Inhibitors of urokinase plasminogen activator” (Rutgers, The State University of New Jersey, priority 1993, dated 1996)
Like-named read-outs stand apart in the source and are kept apart here. Where no end group is shown, it is not given here.

Experiments:
urokinase (UK) [1] = target: T1, urokinase (UK) (Homo sapiens, UniProt P00749); conditions: from Turpeinen et al. (PSTI), Christensen et al. (PAI-2); serpin Ki not functionally comparable to reversible inhibitors; read-out: Ki (nM) against UK, values obtained from the literature; cited from earlier work
urokinase (UK) [2] = target: T1, urokinase (UK); assay: Ki of inhibitors against urokinase, fractional enzyme activity assay (Empie and Laskowski) with chromogenic substrate S-2288; type: biochemical; design: purchased Abbott Pharmaceuticals
Description: Fractional enzyme activities for each inhibitor-UK interaction of the above discussed inhibitors were determined by the assay method of Empie and Laskowski (Empie, M. W. et al., Biochem. 21:2274-2284 (1982)), as adapted from Green and Work (Green, N. M. et al., Biochem. J. 54:347-352 (1953)). The concentration of UK used for these reactions was 35 nM. The reactions were carried out in Buffer C. The concentration of the chromogenic substrate used with UK in these assays (S-2288, KabiGen) was […], which is one tenth of the Km of the substrate for UK. Km was determined by a Michaelis-Menten analysis, using a 100-fold range of substrate concentration in Buffer C, and determined to be 4×10^-4 M. Ki values were calculated as the slope of a plot of [I]o /(1-a) vs. 1/a ("a" represents residual enzyme activity) using a variation of the formulas derived by Henderson (Pratt, C. W. et al., Biochem. 26:2855-2863 (1987)). […] These five mutants include the four detailed above(88, 89, 80, AND 91), and also a mutant with arginine at the P1 site of OM3TKY (P1-Arg). […] "ND" means not determined.
Ki values for the wild-type and mutant inhibitors versus urokinase were also determined by non-linear regression of the following equation: [formula]
The non-linear regression was done using the program Enzfitter, by Robin Leatherbarrow. […] Enzyme and inhibitor concentrations used were determined as mentioned above.

| Ki (urokinase (UK) [2]; non-linear regression with Enzfitter, read-out: Ki (nM), Ki VALUES OBTAINED BY NON-LINEAR REGRESSION FOR INHIBITORS AGAINST UK) [nM] | inhibitory activity against UK (urokinase (UK) [2]; statement on Table 5) | Substance | Ki (urokinase (UK) [1]) [nM] |
| --- | --- | --- | --- |
|  |  | PSTI: native Pancreatic Secretory Trypsin Inhibitor, a Kazal-type inhibitor from humans (DSLGREAKCYNELNGCTKIYDPVCGTDGNTYPNECVLCFENRKRQTSILIQKSGPC; ends and bridges not checked; cysteine pairing not given here; UniProt P00995 24-79, looked up) [reference compound] | 300 |
| 1790 ± 415 | virtually no inhibitory activity | P1-Arg: mutant with arginine at the P1 site of OM3TKY (VDCSEYPKPACTREYRPLCGSDNKTYGNKCNFCNAVVESNGTLTLSHFGKC) |  |
